Earlier results on one molecule are cited in US20090023631A1, “Composition and Method of Use for Soft Tissue Augmentation/Drug Delivery” (priority 2007, published 2009).

The series deals with stage III and IV ulcers. As to conditions: multiple studies.

B1: recombinant human PDGF-BB: platelet-derived growth factor, commercial product available as recombinant human PDGF-BB (protein, UniProt P01127 82-190, looked up)
Platelet-derived growth …: SLGSLTIAEPAMIAECKTRTEVFEISRRLIDRTNANFLVWPPCVEVQRCSGCCNNRNVQCRPTQVQLRPVQVRKIEIVRKKPIFKKATVTLEDHLACKCETVAAARPVT
modifications: BB homodimer
Turning to B1, the healing time result is given as “reduce healing time” and the “incidence of complete wound healing” value is given as “improve the incidence of complete wound healing”.
